Assay results from the DeepSol protein solubility set.

Experiment: soluble on expression in E. coli; label from the status in PepcDB or PDB records

Sequence | soluble on expression in E. coli
MGSDKIHHHHHHMITIKKGLDLPITGEPSREISEHRPAHVALIGYDYVGMKPTMNVKEGDIVAKGQSVFEDKKRAGVIYTAPAAGKVVAIKRGERRVFESLVIAVDPNGAEVEFQRYDSQQLADLDSEVVETQLLASGEWTAFRTRPYSRAPEIGARPHAIFVTAMDTNPLAFDPMLLINEQLQAFNDGLAVLSTLSPKTFVCHHGNSQLTPVAKTAANNVTEYHSFAGKHPAGLAGTHIHFLHPIMRGTSVWTIGYQDVIAIGKLFTSGRLYTRRLLSLAGPAVSNPHVIATERGADIAALTKGNLTAGENRVISGSVLSGRQVFANIAYLGRFDNQVSVLAEGRERPAFHFFTPGANRFSKLPIYISQFFGGKKYNFTTTSNGSPRAMVPIGVYEEVMPQDYLPTQLLRALIVEDIVTAVDLGVLELDEEDLALCTFVSPGKYEFGDILRDNLTRIELEG | not soluble
MNNGEGEVMDLRDIDLNLLVVFNQLLLDRSVSTAGEKLGLTQPAVSNSLKRLRTALNDDLFLRTSKGMEPTPYALHLAEPVIYALNTLQTALTTRDSFDPFASTRTFNLAMTDIGEMYFMPPLMEALAQRAPHIQISTLRPNAGNLSEDMESGAVDLALGLLPELQTGFFQRRLFRHRYVCMFRKDHPSAKSPMSLKQFSELEHVGVVALNTGHGEVDGLLERAGIKRRMRLVVPHFIAIGPILHSTDLIATVPERFAVRCEVPFGLTTSPHPAKLPDIAINLFWHAKYNRDPGNMWLRQLFVELFSEAHHHHHH | soluble
MSLGAYLSEPLTTKDSSDESNEFLASGSSSMQGWRISQEDAHNCILNFDDQCSFFAVYDGHGGAEVAQYCSLHLPTFLKTVEAYGRKEFEKALKEAFLGFDATLLQEKVIEELKVLSGDSAGSDAEPGKDSGCTAVVALLHGKDLYVANAGDSRCVVCRNGKALEMSFDHKPEDTVEYQRIEKAGGRVTLDGRVNGGLNLSRAIGDHGYKMNKSLPAEEQMISALPDIEKITVGPEDEFMVLACDGIWNFMTSEQVVQFVQERINKPGMKLSKICEELFDHCLAPHTRGDGTGCDNMTAIIVQFKEGHHHHHH | soluble
MSELLEKAERLKTASQTLAMLSAEEKNAALEQIAQTLDRERAFILQENEKDMAQGCKQGLSPALLDRLQLTNERLDQIIDGVRQVASLPDPVGEIIAEWTRPNGLRIQTVRVPLGVIGMVYEARPNVTVDAASLCLKTGNAVLLRGSTSALHSNKALVRVMKEALRTTTVPETAIELLEDTSRETAQHMFRLNEYLDVLIPRGGAGLIRSVVENATVPVLETGVGNCHIFIDESAERQMAIDIVLNAKLQRPSVCNAVETVLIHERWPYADDLLETLHARGVELRGDQRLASAHPFVSEATEDDWYTEYLAPILAVKLVADVDEAIGHIRRYGTKHSEAIITENEANVRRFFQGVDAAVLYHNASTRFTDGEQFGYGAEIGISTQKLHARGPMGLVAITTTKSLVYGTGQIRE | not soluble
MEEKVEFILEVRSIPVYGDEFSPRLRKFFPIDYEPVERVTVPTSKKADYAVMISSNLKPFSIKEGDYILISLDDEPQEGDLVAVLVKDFRITVGRVKERQEDIFVVEVGNEVGIYRCFIFPYLDQLHRSSFELSFNPYVLGKITAILRKKPAH | soluble
MGSDKIHHHHHHMVQDRKSTVVITGASSGVGLYAAKALAERGWYVVMACRDVAKAQLAAQSVGIPHQGSYTIMHIDLGSLDSVRQFVKNFRASGHSLDALVCNAAIYMPLIKEPLRSPEGYELTVTTNHLGHFLLCNLMLEDLKKSSSEPRLVILGTVTHNPDELGGKIPPRPDLGDLQGFAEGFKEPISMIDGKKFEPVKAYKDSKVCNVLTMRELHQRYHESTGIVFNSLYPGCVAETPLFRNHYPLFQKIFPLFQKYITKGYVSQELAGERVAAVVADPEYNQSGVYWSWGNRQKEDGKSFVQKVSPQARDDDKGDRLWQLSAKLVGLA | not soluble
MSLCPLTPVGKYLLLPLWLGVRPFFRALFRIEVIGKENIPEGACIVASNHRSHLDPPVLNAVFPEPLVFLAKEELFKPPFGGILKHMRAIPLRRGSEDISTLEECVSLLKLGCKIGIFPEGTRANPGEFKRAKPGVGFLAINSGFPVLPVYIDGTDRAFPRGKKFPKPFVKVSVVIGKPLEFKGLEPSVKNYKRVANEIMEEIKKLAQSLHRKEGHHHHHH | soluble
MKNTLKLPLLIGVAGGTSCGKSTIVERIIENLNANAKQSGRQIDIVHLSLHSFYRELSAEEKILAREGKFNFDHPDQINFDLLAETLQNMIDGKTVEIPKYDMITSSMNGTVTVEPAKVIIIEGILLLYDERVRKLLSTKLFVEKNAESRLRNRLATYIRDYHRAPLSIIRQYTEFVKPAFEEFCRPTKKYADVIIPRGADNHVATDLIAKNLQVRFKRQNNALFDFEL | not soluble
MSAFDIVLREGTVVDGTGADPFVADVAISGGRIAAIGPNLSRGTTEINASGQIVTPGFVDLHTHYDGQVTWDNRLAPSSYHGVTTAVIGNCGVGFAPCRRDAASRDAMVRLMEGVEDIPHPVLTEGLPWTWETFPDYLDFLASRTYDIDVAAYVPHAPLRVYVMGQRGADREPATQTDIAEMCRLLEQALDRGALGIATSRSLFHRSSDGTAIPTYQAAQAELMAFAEVLRAKGKGVFQIVEDIHVPGASLDNMRELARTSGRPLTFSIGTGNTGPYGYPRLLDELAAANAEGLVMKGQLMPRGIGMILGFELTLNPFYTTSTFARLAPLPLAERLEQLRRPEIRAAILSEPMDPDPALVLGRAVRDFDHMFLLGDDPDYEQPPERSIAGRAREAGITPEELAYDVMTEGESGGLLYLAMANYADGSLDAVGDILSHPDVVLGLGDGGAHVGTICDASYSTFALCHWARDRQRGRKTVADMVHRMTQATARVIGLEDRGELAVGKRADINVIDLAQLALRPPQVCHDLPAGGRRLIQRATGYSLTMLAGEIVLRDDEPTGLLPGRLIRASLEHHHHHH | not soluble
GPGSMLCRVHLRADPHSSSLHNVVHATNAMAAVNQLLGPERSVFVATEVQPQGVGHSCHGIQLPEDAIIAENVRTSMLVPKVRLHILGDAERGIPPVQQVVIWGYETCGCILQTADDLLTHGVRVAVLVDGCASRTKEVHDTAVLQISRWDGLMVTTVPSAVMQLTRSDARFVKPIIQIMKKFAADWCTTQPRPELRDRGGSGDGEKATAASDARAVPSALATATAADAILAANSACCRTEH | not soluble
MSLARVGVVCHVHPDADTIGAGLALALVLDGCGKRVEVSFAAPATLPESLRSLPGCHLLVRPEVMRRDVDLVVTVDIPSVDRLGALGDLTDSGRELLVIDHHASNDLFGTANFIDPSADSTTTMVAEILDAWGKPIDPRVAHCIYAGLATDTGSFRWASVRGYRLAARLVEIGVDNATVSRTLMDSHPFTWLPLLSRVLGSAQLVSEAVGGRGLVYVVVDNREWVAARSEEVESIVDIVRTTQQAEVAAVFKEVEPHRWSVSMRAKTVNLAAVASGFGGGGHRLAAGYTTTGSIDDAVASLRAALGEGHHHHHH | not soluble
MNPDHKEIIMNHIGLFALTAAALLAGCSSNTQQDNYREASFELCNTEVNIYSVSDDGQVRIVCADGAKFALKTEKTLDIMRDINVDYCDGEGLGKFTESNKYYMFKCKSGTMISVSK | not soluble
MGSDKIHHHHHHEGNATTTSYFLNDQQAIDAIDGLYERFHQEGCYGRELFWEQGAACDIVWGRTRGYNSLATLAYTGDESPLRDVFSRMYSTMSRANWIIQELVKKEKGTTLTAVEKRSLGEAYFSRGWAHYLIAYRYGTDKQGVPFVRYEDFPDDYDNSIPPQQATVMDNYKLIIEDMDKAIAYLPIFESYDADNRGRAHQAAAVAFKAKTYAYWATWDATQWNNVIEMVNQLENNYNRDLAPTFAELFSSDLKDYWNAEYLWTIPSIGGALPGGTEFPGIILENKGWGKYNGWGQMKPSYDIYEEMAKDGKGNDRLVRSILEYNQEFPFFGETRKFWSTSDLEAGFMINKYMDAFKYSDPVGEGAVSANGDWPTVRVNFPIIRFAEMLLFRAEAYLMTGQADKATADINRIRLRSNLTPLTGTATMKDLYHERRCELAFEFTDHLFDLKRWNRSSNADIKTLADKELNAHPRIRRYEDRANPESAFTIIGYEDYTNKNAYQAHMMVFPYPSEEITKSNGQLKQNEGY | not soluble
SNAMNIQILQEQANTLRFLSADMVQKANSGHPGAPLGLADILSVLSYHLKHNPKNPTWLNRDRLVFSGGHASALLYSFLHLSGYDLSLEDLKNFRQLHSKTPGHPEISTLGVEIATGPLGQGVANAVGFAMAAKKAQNLLGSDLIDHKIYCLCGDGDLQEGISYEACSLAGLHKLDNFILIYDSNNISIEGDVGLAFNENVKMRFEAQGFEVLSINGHDYEEINKALEQAKKSTKPCLIIAKTTIAKGAGELEGSHKSHGAPLGEEVIKKAKEQAGFDPNISFHIPQASKIRFESAVELGDLEEAKWKDKLEKSAKKELLERLLNPDFNKIAYPDFKGKDLATRDSNGEILNVLAKNLEGFLGGSADLGPSNKTELHSMGDFVEGKNIHFGIREHAMAAINNAFARYGIFLPFSATFFIFSEYLKPAARIAALMKIKHFFIFTHDSIGVGEDGPTHQPIEQLSTFRAMPNFLTFRPADGVENVKAWQIALNADIPSAFVLSRQKLKALNEPVFGDVKNGAYLLKESKEAKFTLLASGSEVWLCLESANELEKQGFACNVVSMPCFELFEKQDKAYQERLLKGEVIGVEAAHSNELYKFCHKVYGIESFGESGKDKDVFERFGFSVSKLVNFILSK | soluble
MGSDKIHHHHHHMVSRYLEHLEHTFSTRLFQRNTRKISLTPAGEKALLYCENILQQQQLLQELAAPEQHNGTIRFTCGLFLFELGVAECIRQFKRQHPHIQFDVYLTESTMDLIDAQVDLALRITQKVADGLIARPVCQIESVFCAHPDYLKQHSPLLHPRQLIQHECIAHHSQHQFWTLFDNEQQPQNYPLNVTFKSNDVNALYDMCLHAQGVAMLPTLLVEKDLKEKRLKALFKNFTAPELSLSVVYASRQHLPRITQEFIAFMIENLDFYLKPQN | not soluble
MGSDKIHHHHHHMEIKGKVHYVGVNDRNKALFENLWPLPYGVSYNSYLIDDEMVALVDTVDVCYFEVYLKKIRSIIGDKPINYLIINHMEPDHSGSISLIKQYYPNIVIVGNKKTFEMIEGYYGVGGERYVVGEGDFLALGHHRLRFSLIPMVHWPETMVTFDETEGILFSGDAFGCFGALNGGVVDTNINTDIYWNEMVRYYSNIVGKYGAPVQKALQKLQNLKITTVCSTHGPVWTEEIPRVVRIYDRLSRYEAEEGVVIAYGSMYGNTEEVAEAIAEELSKQGIRNIVMHNVSHTSHSFIIADVFKYKGLIVGCPTYNTQMYPEMEALLSKLASREIKGRYLGYFGSFTWASAAVKKIAEFNDKLKFEPVGNPVEMKHSMKAETNTQAKELAKAMADRLKADRK | not soluble
MHHHHHHSSGVDLGTENLYFQSMPFPEGKVLDDMEGNQWVLGKKIGSGGFGLIYLAFPTNKPEKDARHVVKVEYQENGPLFSELKFYQRVAKKDCIKKWIERKQLDYLGIPLFYGSGLTEFKGRSYRFMVMERLGIDLQKISGQNGTFKKSTVLQLGIRMLDVLEYIHENEYVHGDIKAANLLLGYKNPDQVYLADYGLSYRYCPNGNHKQYQENPRKGHNGTIEFTSLDAHKGVALSRRSDVEILGYCMLRWLCGKLPWEQNLKDPVAVQTAKTNLLDELPQSVLKWAPSGSSCCEIAQFLVCAHSLAYDEKPNYQALKKILNPHGIPLGPLDFSTKGQSINVH | soluble
MADSEADKPLRKISAAFKKLAIIVNSPNPEVPVTQFSHACSLVSPLFGCLGIAFKFAEMDYVAKVDDLVRASSSISTLVVMMDKDIEADCVRKAGSHTRNLLRVKRGLDMVKVLFEQIIASEGDNSLKDPATKSYAQVFAPHHGWAIRKAVSLGMYALPTRAHLLNMLKEDEAAAKIHMQSYVNSSAPLITYLDNLFLSKQLGIDW | not soluble
